Data on 4 molecules can be found in publication PMC2690451 (The EMBO Journal, 2009).

Series [1] deals with T1, MBP-RacA (B. subtilis, UniProt P45870 1-184).
T1 sequence: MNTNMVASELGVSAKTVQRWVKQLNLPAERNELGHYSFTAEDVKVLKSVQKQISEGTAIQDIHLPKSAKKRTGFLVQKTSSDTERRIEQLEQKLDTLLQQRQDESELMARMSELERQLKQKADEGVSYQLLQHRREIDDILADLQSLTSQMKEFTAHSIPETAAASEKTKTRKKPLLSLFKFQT
In words: density gradient flotation with liposomes.

Series [2] deals with the molecule itself. In words: SEC. (SEC sorts molecules by how far they enter the pores of the column.)

B1: DivIVA (natural protein)
chain: MPLTPNDIHNKTFTKSFRGYDEDEVNEFLAQVRKDYEIVLRKKTELEAKVNELDERIGHFANIEETLNKSILVAQEAAEDVKRNSQKEAKLIVREAEKNADRIINESLSKSRKIAMEIEELKKQSKVFRTRFQMLIEAQLDLLKNDDWDHLLEYEVDAVFEEKE
As to B1, the binding result in series [1] was “binds”.

B2: DivIVA-MBP (natural protein)
chain: MPLTPNDIHNKTFTKSFRGYDEDEVNEFLAQVRKDYEIVLRKKTELEAKVNELDERIGHFANIEETLNKSILVAQEAAEDVKRNSQKEAKLIVREAEKNADRIINESLSKSRKIAMEIEELKKQSKVFRTRFQMLIEAQLDLLKNDDWDHLLEYEVDAVFEEKE
With B2, in series [2], the binding result is listed as “binds”.

B3: ΔN-DivIVA-MBP (domain or fragment)
chain: RKKTELEAKVNELDERIGHFANIEETLNKSILVAQEAAEDVKRNSQKEAKLIVREAEKNADRIINESLSKSRKIAMEIEELKKQSKVFRTRFQMLIEAQLDLLKNDDWDHLLEYEVDAVFEEKE
B3: the binding result in series [2] is given as “binds”.

B4: ΔC-DivIVA-MBP (domain or fragment)
chain: MPLTPNDIHNKTFTKSFRGYDEDEVNEFLAQVRKDYEIVLRKKTELEAKVNELDERIGHFANIEETLNKSILVAQEAAEDVKRNSQKEAKLIVREAEKNADRIINESLSKSRKIAMEIEELKKQSKVFRTRFQMLIEAQLDLLK
With B4, the binding result in series [2] is recorded as “binds”.
